The values below come from the domain aggregation screens of Martell et al. (2025).

A short description of the series: soluble fraction after stress (log2 fold change); higher = more stays soluble; pooled small domains, quantitative proteomics. To be noted: stress: 50 degC. In outline: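 Custom libraries of small protein domains were pooled and measured in a high-throughput format, with quantitative proteomics as the read-out. Each library was stressed at 50°C. The value is the log2 fold change in the amount of each protein that stays soluble after stress, used as a measure of aggregation propensity; higher values mean more of the protein stays soluble.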
Turning to “HMLLAPLRLGAAPDIKAQAPLATILARHNGEMEAKDLWQRFGGEIDAFYLQLKTEVAHGWIVEPEPA”, the “soluble fraction (log2)” value was -0.816.

For “HMLKLYILTDGKNYVMDDPIHPGRVMYSTSPVNAKKFTFKQARALLNNKSKKLSWIRSFNMVDDSSGEKI”, the “soluble fraction (log2)” value is -0.692.

Regarding “HMAIRPDAAVSSHAVKQRLQSLIRAEDPAAPLSDEALRLALSALGIGVSRRAVAKYRAEMGIPSSSQRKK”, the “soluble fraction (log2)” value is -0.0632.

For “HMRRRVIGTLVMGDMSTDFKVLADGHTHRVLAAAISFHKAKPGDEVVILVPKSAPSKWAAVEHVMK”, the “soluble fraction (log2)” value was found to be 0.458.

Regarding “HMASELVSADEKYSGLVSYLLGRVVVVDQIDHAIALAKKYRYSLRIVTLDGELLSPGGSMTGGAFKNS”, the “soluble fraction (log2)” value was -0.0628.

Consider “HMITEQEFQRVAAYVKNKAGINLNEKKVLVQGRLDSYMQRKGYSSYDEFMDRVERFPTGPEAEDLMNALTT”, for which the “soluble fraction (log2)” value was 0.0575.

As to “HMQISDEAALLAIVDRVIADNQGPLANYLGGKQSLLGWFVGQVMRATRGQAIPAVVNRLVGERLAAQREE”, the “soluble fraction (log2)” value was -0.627.

“HMEKVTAPMPGVINSIVKNVGDTVKRGDVVLILEAMKMENEIVAPKEGKIASINVAKGASVNAGDVLFSI”: the “soluble fraction (log2)” value was found to be 0.294.

Turning to “HMDTGPISGQVEADRVEVHGHLDGKISAQNVVVGQTGVVKGDIEFGENLRTEEGADIEGYIK”, the “soluble fraction (log2)” value is -0.149.

As to “HMSNTGDIIRKLREESGVTAKELAHRIGLSASQMSRLESGKRRINSEVLTRIARALEVAPSQLID”, the “soluble fraction (log2)” value is -0.136.

For “HMQSMSADDWSEKARVLMSAGIIVMGQEAKEKILNLKSLVPLIEAASASNVSMIDSRTFDELLMIIP”, the “soluble fraction (log2)” value was -1.26.

On to “HMNDILETISNQIRDLRVSKKITQQELAERTNLSVPYISQIENGHRNISLETFIKIVDALDIPLSDFFLP”, for which the “soluble fraction (log2)” value is -1.03.

For the sequence “HMLNEIMDTINKYISDKRNNKVAQNILSAALDELNSQIRVGLKDLNPHSIEEFKENVINSPYIEFEQG”, the “soluble fraction (log2)” value amounted to 0.046.

With “HMIDLPDIDIDFAKRTGVLEHITHTPARLETGKQHNTGVYFTDIPRGVDGLATMDHKRAEQLGYFKLDML”, the “soluble fraction (log2)” value is 0.0268.

Take “HMLNNVDIHKLSEDLLLYKIKIDIKLKNIEDAISTIDYFSNKFPNSDLMPYVIYEKKLIDNI”: the “soluble fraction (log2)” value is -2.5.

Turning to “HMGLRERLLNYIAYKGIDKATLERKSGLSNDAVNKMGDNTRVSTLDKISNAFPDINIAWLKTGVGEMILG”, the “soluble fraction (log2)” value is -0.113.

For the sequence “HMNTQGWEIFEGRITTADTDLNPSGWIRIDGQRIFVISDAGFIDKGKEVSILSVDGNRVLVRK”, the “soluble fraction (log2)” value is -0.641.

As to “HMEDYYKEDYYTEVLKIPKEYIKGFQYYLIEDAEFVNALNAKNKTMTSFLAKKLASDYIEIIHQEQ”, the “soluble fraction (log2)” value is -1.46.

On to “HMRITRREQQVLHLLAMGMTTREIAGHINLTERTVRNRISNLRDKLGAQTASQLLAKAVAQGLIEP”, for which the “soluble fraction (log2)” value is -2.02.

As for “HMIHKTDAINLGQRLLKSSLKEFDVSLKDIPNKTLMYILSEYKFNSLDDLYREIGLGNVIPKLVALRMAP”, the “soluble fraction (log2)” value was -0.423.

As for “HMRVDYKTQLQELLQRQGAAAPQYRLLVEEGPAHLRRFQVGVYFQGRLLGTGWGRNKKEAEQEAARQALMP”, the “soluble fraction (log2)” value was -0.494.

As to “HMSKEGLASLLEDINGLGAIRRKTLIDHFGSVAKIRGARPEEIAALPGMGRKIAEHILASLRED”, the “soluble fraction (log2)” value is -0.251.

Turning to “HMASVGTHIKRLRAAKRMTQEELAEQLHVTRQAVSAWETGKALPDVEMLERIAAALDADVTEVIYGA”, the “soluble fraction (log2)” value is 0.0402.

Consider “HMTTQVPYTAKLININGGSVVNFRKEPGMNTTIIRTYPVGTEVTVLETGVNWSKVEIDGVTGYVSSYFL”, for which the “soluble fraction (log2)” value is -0.699.

On to “HMDIPITFEQLPAKAQAFVKQYFKIEEIASVWRDDDIHDQDYKVYFNDGSEIEFYANGDWEEV”, for which the “soluble fraction (log2)” value is -0.62.

On to “HMISKRFQIDEENAHKRIDIFLSHEFDSISRGIVQELIVKGEVLVNDKVTKRNYKLKTGDLVDITINL”, for which the “soluble fraction (log2)” value is -2.59.

For the sequence “HMSLSQLGLTPRQTDVLALLLKGQPNKLIARELGLSVETVKDHVAAVLRALNVSSRTQAVIAVSQMLQ”, the “soluble fraction (log2)” value was -0.905.

In the case of “HMYEGLILINKYDSLVSAKLETNKIKSLGLFFEDMEEKIAVFSGPFKNNDINLKLDFLIRNGYLDAKIY”, the “soluble fraction (log2)” value was -4.51.

Turning to “HMASEVEVPNVYGMPSSLAERELSAVGLLADYRSRTGTGQQPGTVVHVKPDAGTVVSRGSTVVLFIA”, the “soluble fraction (log2)” value came to 0.00535.

For “HMGISGSDLEKMIRNILVNNTDVVETIKSGQDKKGKKQKFLQGLIMKEARGQTDPREAASLLAKLLE”, the “soluble fraction (log2)” value was -0.0715.

As for “HMYRYYSTLRPITPGAYPKPADNPAMLIHNFDNREYVGKIGREAWGYVEYNNPLTKEQIEAFDFVAE”, the “soluble fraction (log2)” value is 0.0677.

As for “HMLDDESLHFFYKKDGWEYWMKTTTENNYPIQLRKKIGDEKVQEYWNGDKEKKKIGASYFGV”, the “soluble fraction (log2)” value is -0.391.

On to “HMSAGYTYQNYQQDLKSGNVQNIHIYLSEEMYSGNVKVIYKNNKSVTFTVTDVTIAEAEARQVGISPIIYE”, for which the “soluble fraction (log2)” value was -0.1.

On to “HMRREKVLIKLAENLASKVLRTKKSIELEPMTPYERKVIHTTIENISGVKSWSEGENLQRHLIVALDE”, for which the “soluble fraction (log2)” value is -1.3.

With “HMASIEPLKTSIRIIWYINGEKDSETLLNTPPTAANKANAQKIADMVEQQIQMGIFNRDAVFPSSPKRQ”, the “soluble fraction (log2)” value is -1.87.

In the case of “HMAPELRSDAQMRRLWALAKENGLDEVGFRAFISDATGREVESTKSLTATEAHRLIEELEAP”, the “soluble fraction (log2)” value is -0.388.

Regarding “HMNVKVYATIDGDNFKVSGLKPGSNVRVYSSNGSAVFEKKAGDSEMIIPAGAWTKGIYVISADDQSIKVT”, the “soluble fraction (log2)” value is -0.109.

For “HMEAAIRNALSRVENPDETQRARIYRTAHDALIRNLENRGITDPEQVRPQVSRLKDLISVIEREYHG”, the “soluble fraction (log2)” value was -0.0521.

For the sequence “HMAESSLPKMPRDESKYIYHSVQPGETVYSLSKRYSVSESDIVKSNPGIDITKLSLGLEVAIPRI”, the “soluble fraction (log2)” value was determined as 0.354.

In the case of “HMFKYRELLDWAKNRFDDLEVSIAPKALALLVESIGTDLRLLDSEIQKLSMYKPLEMISTNDVEDLVA”, the “soluble fraction (log2)” value is -0.357.

“HMTGKASEIAALLEQRIAAGDYPAGSKLPSERELAASFHVSRNTIRDAIALLAARKIVSTKWGAGTVVLG”: the “soluble fraction (log2)” value was -0.139.

Turning to “HMSSKRDQFIVLGQEILEKMFKNEGLEFSEKGLLAVMPNFEAESINDIYAKVGEGLISGWDVMKAVYPAY”, the “soluble fraction (log2)” value is -0.133.

Turning to “HMFNVKAYEKAVKSYITKRKPLGEALDEEIMDELSVKFGIVDDALEDLFKQIQDAGISIVDKDGNPSPLAL”, the “soluble fraction (log2)” value was -0.619.

As to “HMRPRWTEQEVERAKAIKMIYPNAYRLESSDVFVQVWSKEEILLAHVEVDMFPSLRPGQPVELDEIIG”, the “soluble fraction (log2)” value came out at 0.103.

Regarding “HMKMTFGENLHKLRKIYRLSQEDVASAINLKRSDIAAVEKGDRVLNDEELDKLADFIGIDIVDLL”, the “soluble fraction (log2)” value was -0.193.

As to “HMYSDIERAMTNAPEQFANKQAVLDFLNKNRIKKSEVDDYRIASLLKLYDDASPISKTEIISQVRT”, the “soluble fraction (log2)” value amounted to 0.149.

In the case of “HMSDVTPDVVRALRKRLKLTQVQFGEIFGMTSKKVSAWEHGKAEPTEEQKQKIQSLLKENNEQ”, the “soluble fraction (log2)” value is -0.0029.

Regarding “HMSSTSISFNDFQKYWLSNDIKSFQLREDKMTVQGSLKNGTAYETVVPSERLFQFIGQHPKD”, the “soluble fraction (log2)” value amounted to 0.368.

Consider “HMTYLIKFDENGRRSDTYVAEEKTQEQVTELLEKGFVLITEEDYQLLVGNVDGKEYIRNADGTYSEYT”, for which the “soluble fraction (log2)” value is -0.0279.

Turning to “HMRGINDLSLVDPQGRIRKDGEQYVVAFGRHKGKEISQIISQDPSYLNWLLSPKGIEDDATRELIRTQYS”, the “soluble fraction (log2)” value is -0.0415.

In the case of “HMAGTAFPVRIMLKGIDRIGLLNEITGYISVAMGVNMRKLNLSTEDGIFEGYIDMLVHDRTVLESMIDNL”, the “soluble fraction (log2)” value is -0.381.

In the case of “HMFRDFSETLLRKLQAAGGFLPFTDKTDAEAIAEHFQVSKKTFKRAVGTLYKQRRILIDDEGITLIG”, the “soluble fraction (log2)” value was -0.148.

“HMSPIPLPVERAIHKLGSDISLARRRRHISQASLAERMGASLSTVRRMEKGDVRVPIHFFARALHVFG”: the “soluble fraction (log2)” value is -0.00115.

“HMGDDYFTILGIERDATTDEIRSAYRRLSKKIHPDAQGSSALFRQVQEAYETLIDPSSRARYVAELNASQG”: the “soluble fraction (log2)” value came out at 0.113.

As to “HMASIGVGTIVRVANAVNYNGVKVKAWFNDEGYEVTELSGDRAVLKHNGDLFDAFHVSDLEA”, the “soluble fraction (log2)” value was -1.29.

As for “HMLKLPVEYLNLKYQLMHATSLDKPNNLMKLDEKLGKIIDVYYDDLPVDEQRVVDILQSKLYSY”, the “soluble fraction (log2)” value is -0.996.

Take “HMTLFDESGYTARELEIIREVANGLSNKEIADKLFLSEGTVKNYITGILAKENLSHRTALAVYYLTGRK”: the “soluble fraction (log2)” value was determined as 0.0583.

“HMITQQEFQQKLEALLSRAEAESFHIKKEEAESFFSGDELTGEQMKLVFDYLLSKKIIVEGYLK”: the “soluble fraction (log2)” value was -0.0863.

For the sequence “HMNGADPYEQLGVTRDASDDELKAAHRKLSRENHPDTLMAKGMPPEFIEQANDKMARINAAWDQIRKERGI”, the “soluble fraction (log2)” value was 0.26.

On to “HMLRLLEIIAGNEVSKEINSQVIKYYKALKNKKIEEINNLTPSYNKLIISFDLKKKNFREMKKIIEDISIN”, for which the “soluble fraction (log2)” value is -0.162.

For the sequence “HMQNEVMPYSTFLSEVNSGNVTKVKIDHEQLTGTLKSGKQFTTYILDAATLPSIVAEKGVEVEVVPP”, the “soluble fraction (log2)” value was determined as 0.357.

For “HMVNLKQVELREHHPWVGHKIKELDISRHTLIVMIRRGDNAIVPNGDTLIKSGDIVFVFSKR”, the “soluble fraction (log2)” value is -1.05.

As to “HMNSVLPQEVKSSLNDFFTKYAPGSIAQKLINHASFTGGKVVVTGVELTQTQADDLKKAFKDKFF”, the “soluble fraction (log2)” value turned out to be 0.000827.

For “HMGGKWKLRILWHIHHGDTRFSTLKRGIPEISEKILAQQLRELEEHQLIKRRVVTVMPPHVVYEL”, the “soluble fraction (log2)” value was -2.28.

As for “HMPKLSNNHMAVWQAIRSRTAKGEPSTRAVIRDDLKAAGMDTSKHFSRWLTKLIDLGMVVKDGENLSIR”, the “soluble fraction (log2)” value is -0.16.

As to “HMFRSNAERAAHLASALPRAEAELAALQARGAATSENIYLRSSYFDALRYTEELRAAKRAQDALQGA”, the “soluble fraction (log2)” value worked out at 0.0735.

As for “HMRFQGKISDWNDEKGYGFVEPNGGGTRAFVHIKSFTDLPRRPINGDIIIYETTTDEKNRVQANNISFTR”, the “soluble fraction (log2)” value is 0.0181.

For the sequence “HMATGTVKWFNPNKGFGFIQQDDASKDVFVHSNELNGVYINEGDKVEFDVVETEKGLSAQNIKK”, the “soluble fraction (log2)” value is -0.0828.

As to “HMEQISVPIFTNDELVTFARSYSGELGYKIDDMAVLALYNRISNIQRLDQATTLTEVKDIVDEAVAKSE”, the “soluble fraction (log2)” value was -0.0661.
